Test results published in publication PMC5127057.

How the values were obtained:
[1] = molecular target: Human Neutrophil Elastase (human) (UniProt P08246); test: stoichiometry of inhibition by titration of residual protease activity; 200 nM HNE or 300 nM PR3 mixed with varied Siropin, molar ratios from 0 to 10, 5 min at 37 °C, then substrate, absorbance at 405 nm for 30 min; x-intercept of linear regression; 20 mM Tris-HCl, 500 mM NaCl, pH 8.0
[2] = molecular target: Human Proteinase 3 (human) (UniProt P24158); test: as above
[3] = molecular target: Human Neutrophil Elastase (human) (UniProt P08246); test: progress curve kinetics of protease inhibition; pseudo-first-order conditions, Siropin 1 to tenfold over protease, 200 µM substrate, HNE (200 nM) or PR3 (300 nM), 37 °C, 405 nm for 20 min; k obs against Siropin concentration, slope k'app corrected for substrate competition (Km 114 µM HNE, 270 µM PR3)
[4] = molecular target: Human Proteinase 3 (human) (UniProt P24158); test: as above

UniProt P08246, sequence (P08246 30-267): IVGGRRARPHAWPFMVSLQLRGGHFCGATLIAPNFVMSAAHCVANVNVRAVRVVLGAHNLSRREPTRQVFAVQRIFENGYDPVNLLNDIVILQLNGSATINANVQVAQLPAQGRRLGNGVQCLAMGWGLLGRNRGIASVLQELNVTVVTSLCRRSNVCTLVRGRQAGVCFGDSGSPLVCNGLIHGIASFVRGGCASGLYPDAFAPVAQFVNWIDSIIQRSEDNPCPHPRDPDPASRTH
UniProt P24158, sequence (P24158 28-248): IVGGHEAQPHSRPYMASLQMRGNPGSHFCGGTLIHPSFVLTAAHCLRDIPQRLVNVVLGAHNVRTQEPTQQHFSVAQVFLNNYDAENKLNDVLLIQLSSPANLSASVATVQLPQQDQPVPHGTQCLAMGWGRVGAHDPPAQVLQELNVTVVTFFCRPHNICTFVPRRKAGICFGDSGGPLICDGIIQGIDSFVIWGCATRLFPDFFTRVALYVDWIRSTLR

Substance | stoichiometry of inhibition (SI) [1] | stoichiometry of inhibition (SI) [2] | kon [3] | kon [4]
Siropin 1 (natural protein) | 1.76 | 1.1 | 84000 M⁻¹ s⁻¹ | 260000 M⁻¹ s⁻¹
Siropin 2 (natural protein) | 1.82 | 1.1 | 77000 M⁻¹ s⁻¹ | 110000 M⁻¹ s⁻¹
